# According to the RNAGym collection of RNA variant scans (doi:10.1073/pnas.2313332121):
# B1: TPR t1 (parent)
# chain: GACCAAUCUGCCCUCAGAGCUCGAGAACAUCUUCGGAUGCAGAGGAGGCAGGCUUCGGUGGCGCGAUAGCGCCAACGUCCUCAACCUCCAAUGCAUCCCACCACAUGAUGAUGCCUGAAGAGCCUUGGUUUUUUG
# Variants of: B1
# Experiment: polymerase ribozyme fitness, log enrichment relative to wild type (log ratio); higher = more active; in vitro selection for triplet polymerase activity
# Summary of the method: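 To select mutant libraries of each subunit of a heterodimeric triplet polymerase ribozyme, built by PCR and transcribed, each was annealed with a biotinylated primer, partner subunit and triplets, then incubated frozen at −7 °C. Extended constructs were gel-excised, captured on streptavidin beads and amplified by RT-PCR, in one round carried out in triplicate. Illumina sequencing of input and output libraries kept genotypes with ≥10 input reads and ≥1 read per output. Fitness is the base-2 logarithm of genotype enrichment relative to wild-type enrichment, from inverse-variance-weighted replicate averages.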
row,Variant,polymerase ribozyme fitness (log ratio)
1,C11G G44C G77A C80A U130A U131A,-4.18
2,C11G G48A,-0.377
3,C11G G48C G110A,-1.89
4,C11G G48U,-1.46
5,C11G G57A C73A C123G,0.666
6,C11G G57U U67G G120A,-6.74
7,C11G G60A G120A G135A,1.87
8,C11G G61A,1
9,C11G G61A A90U U109G G117A,-6.12
10,C11G G61C,-1.35
11,C11G G61U U87G,0.243
12,C11G G61U U96C,-0.274
13,C11G G63C A105U C123G,-2.11
14,C11G G63C U96A,-0.969
15,C11G G63U,-0.927
16,C11G G65C,-5.03
17,C11G G69U,0.709
18,C11G G71A,-0.503
19,C11G G71C,-0.604
20,C11G G77C,-0.624
21,C11G G93U C123U,0.981
22,C11G G107C U112C C123U G128C,-5.88
23,C11G G113A A119U G120A,-0.282
24,C11G G117C,-1.94

row,Variant,polymerase ribozyme fitness (log ratio)
1,C11G G120C G135C,2.47
2,C11G U14A A46U,-1.11
3,C11G U14A A46U G61A C62U,-2.33
4,C11G U21A A24U G60U C94G G120A,-7.06
5,C11G U21G C53A U55C A68G,-5
6,C11G U32C,-0.0143
7,C11G U32C G35C C97U G120C,-2.23
8,C11G U38G C79U,-1.02
9,C11G U78G C98U,-0.594
10,C11G U87G C123G,1.19
11,C11G U112A,1.42
12,C11U A16U A26U C62A G120C,-5.1
13,C11U A16U G39C G42A C56U,-3.73
14,C11U A18G,-3.57
15,C11U A18G C72A,-3.7
16,C11U A18U C34U C64G C79U C123A,-5.92
17,C11U A18U C53U C72G C82G U96G C98U C104U U109C,-7.77
18,C11U A27G C76G C80A C85A U112G,-0.749
19,C11U A29U A91U G107C C114U,-5.83
20,C11U A29U C53U C72A C123A,-0.568
21,C11U A37C G52C C76U,-2.87
22,C11U A41C C49G U59A G61U A91C U130G,-3.24
23,C11U A41U G69U A74G G117A U125A U130A U131A,-6.86
24,C11U A43C G69C G77U U112G U134G,-5.15

row,Variant,polymerase ribozyme fitness (log ratio)
1,C11U A43U C70U C98U G122U,-4.47
2,C11U A46C,-1.05
3,C11U A46C G51U C86G C102A,-8.49
4,C11U A46C G120A U133G,-0.579
5,C11U A46G G69U,-0.0646
6,C11U A50U G61C C76A A111C,-6.51
7,C11U A74G C89G,-3.01
8,C11U A100C G110A,-2.68
9,C11U C12G,-0.553
10,C11U C12U,-0.628
11,C11U C12U C34A G63U U78C C104G G117C,-6.71
12,C11U C13A C89U,-2.3
13,C11U C13A U78A,-0.472
14,C11U C13G C56U G93C C114U A119G,-3.78
15,C11U C13U,-1.63
16,C11U C13U U32C,-1.05
17,C11U C15A C40U C73A C123G,-0.889
18,C11U C15A G45U C72A U129A,-5.41
19,C11U C15G G47A C86A A90G G117U G120C,-0.496
20,C11U C15U G45U C64U U78A C80U C82U A111U,-8.07
21,C11U C20A G57A C62U U87A,-4.19
22,C11U C20G A27G C56U,-5.19
23,C11U C22G C40U,-3.22
24,C11U C22G C40U G69A,-5.5

row,Variant,polymerase ribozyme fitness (log ratio)
1,C11U C22U C70U C99U U112A,-6.17
2,C11U C28U G120A C124G,0.0586
3,C11U C40G C64U,-1.72
4,C11U C49G U92A C123G,-3.91
5,C11U C49U G63A U109A G117C A119U,-7.12
6,C11U C53A G63C A103C G113U,-6.41
7,C11U C53G A91U,-1.86
8,C11U C53G C64U C101U U125A,-1.43
9,C11U C56U,-0.0444
10,C11U C62U,-0.515
11,C11U C64U,-0.331
12,C11U C70G,-2.97
13,C11U C70U,-0.753
14,C11U C70U C102U,-3.34
15,C11U C72A,0.246
16,C11U C73A,-0.524
17,C11U C73G C102A A103U,-5.8
18,C11U C73G C124U,0.969
19,C11U C76A,-0.763
20,C11U C76U,-0.741
21,C11U C79G U92G,-6.09
22,C11U C85U,-1.93
23,C11U C86U,-0.821
24,C11U C88U C104A A121G,0.139

row,Variant,polymerase ribozyme fitness (log ratio)
1,C11U C89A U112G,-1.71
2,C11U C89G,-1.89
3,C11U C94A C102A,-3.51
4,C11U C101A,-1.8
5,C11U C101G,-2.02
6,C11U C104A,-2.66
7,C11U C104G,-6.74
8,C11U C104U U126G,-2.39
9,C11U C114U U132A,-3.3
10,C11U C115A U125G,-2.51
11,C11U C115G,-1.7
12,C11U G17A C82A,-4.52
13,C11U G17A G57C C89U G120C,-1.86
14,C11U G17A U106A,-3.29
15,C11U G17U,-4.34
16,C11U G17U G48A C124G,-1.88
17,C11U G19U U54A G71A A121C G135U,-4.33
18,C11U G39A,-1.08
19,C11U G39U C86G,-2.92
20,C11U G42A C73U C104A U109A U125G,-7.2
21,C11U G42A C85G,-3.59
22,C11U G42C C53A,-2.22
23,C11U G42C G44U C62U,-2.34
24,C11U G42U G48C C88U G135C,-1.51

row,Variant,polymerase ribozyme fitness (log ratio)
1,C11U G44A G52A A118C C123G,-1.81
2,C11U G45A,-0.828
3,C11U G45A G51A C76G A91C C114G,-5.71
4,C11U G45A U78A C86A U106A U125A,-6.24
5,C11U G47C C56U U78A A100U C115U U131C,-4.41
6,C11U G48A,-1.69
7,C11U G48U,-0.841
8,C11U G48U U59C A84G C101A,-2.88
9,C11U G52U A83U G110C C123U,-5.57
10,C11U G57A G63A C101G,-3.69
11,C11U G58A G71U A90G U116C,-2.7
12,C11U G60A,-0.708
13,C11U G60A U131G,-2.06
14,C11U G61A,0.135
15,C11U G61A C94G,-0.792
16,C11U G61A U112C,1.14
17,C11U G63A,-1.15
18,C11U G63U,-1.27
19,C11U G63U U78C C101A,-4.53
20,C11U G71A U133G,-1.59
21,C11U G71U G93A C104U,-1.26
22,C11U G77U A91U,-1.63
23,C11U G77U A111G U112C G122A,-0.084
24,C11U G113A,-1.33

row,Variant,polymerase ribozyme fitness (log ratio)
1,C11U G117C A119U,-3.48
2,C11U G128C,-2.9
3,C11U U14A A84G,-4.24
4,C11U U14G G19U A29G C31U U32C C72G A111U U129A,-7.29
5,C11U U21C G63A C82U,-1.23
6,C11U U21C G120U,0.267
7,C11U U21G G42A U96G,-4.94
8,C11U U30G G120C,-5.71
9,C11U U32A A46C G48A C72G U112G,-5.51
10,C11U U32A C34U G69U C88A,-4.62
11,C11U U32C C70U C98U C124G,-1.48
12,C11U U33A C85G C101U,-5.74
13,C11U U33G,-5.16
14,C11U U55G,-2.15
15,C11U U78C,-0.264
16,C11U U81A,-2.1
17,C11U U92A,-2.13
18,C11U U106G,-1.1
19,C11U U112G G127A,-1.34
20,C12A A16U G44C C94U G117C U129G,-5.45
21,C12A A18C,-1.6
22,C12A A18C A29G C72A,-2.28
23,C12A A24G A41U G71C C88U A90G C123G,-4.92
